Assay [1] has as its target Human Serum Albumin (human), P02768. Kind of assay: Transil XL HSA binding kit (immobilized HSA), unbound compound by RP-HPLC.
Assay [2] has the same target. Kind of assay: calculated from KD(HSA) at 150 µM HSA (equation 2).

B1: FA-linked dimeric ligand 14 (peptide)
peptide: IETDV
modifications: not checked
On to B1, for which, in assay [1], the Kd – broadly, a measure of binding affinity in units of concentration – was 116 µM. Further, the fu (%), fraction unbound in assay [2] was 43.6%.

B2: FA-linked dimeric ligand 15 (peptide)
peptide: IETDV
modifications: not checked
In assay [1], B2 yielded a Kd of 55 µM. In addition, the fu (%), fraction unbound in assay [2] is 26.8%.

Source of the values: patent publication US20160303245A1, “FATTY ACID DERIVATIVES OF DIMERIC INHIBITORS OF PSD-95” (UNIVERSITY OF COPENHAGEN, priority 2013, published 2016).
